This test deals with commercial orange peel PME (pectin methylesterase, Sigma p5400) (orange (peel)).

“recombinant MePMEI1 protein (pectin methylesterase inhibitor 1 of Manihot esculenta) (natural protein)” returned a relative activity of MePMEI1 (loss of PME activity with MePMEI1 against the initial PME activity) at pH 4.5, 5.5, 6.5, 7.5 and 8.5; highest at pH 5.5, falling with rising pH of 31%.

The values are drawn from PMC9523724.
